In paper PMC6547412:

B1: 20/10mer RNA (dsRNA)
RNA 1: ACUAGCACCGUAAAGCACGC
RNA 2: GCUUUACGGU
B2: 30/10mer RNA (dsRNA)
RNA 1: GGGGAGAAAAACUAGCACCGUAAAGCACGC
RNA 2: GCUUUACGGU

What was measured:
[1] = target: T1, eIF4A;eIF4B;eIF4G-MC (eIF4G) (yeast;yeast;yeast, UniProt P10081;P34167;P39935 1-395;1-436;572-952, ||); assay: fluorescence anisotropy
T1 sequence 1: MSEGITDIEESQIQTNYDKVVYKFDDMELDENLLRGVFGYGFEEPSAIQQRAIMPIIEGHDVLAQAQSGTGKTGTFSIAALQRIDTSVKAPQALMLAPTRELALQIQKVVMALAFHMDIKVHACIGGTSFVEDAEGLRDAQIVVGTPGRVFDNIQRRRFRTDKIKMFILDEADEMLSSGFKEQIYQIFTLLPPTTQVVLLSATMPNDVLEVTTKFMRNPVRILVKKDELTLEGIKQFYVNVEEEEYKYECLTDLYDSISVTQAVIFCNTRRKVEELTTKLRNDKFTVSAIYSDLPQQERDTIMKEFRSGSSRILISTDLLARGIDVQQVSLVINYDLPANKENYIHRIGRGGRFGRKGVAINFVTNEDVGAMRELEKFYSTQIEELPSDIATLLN
T1 sequence 2: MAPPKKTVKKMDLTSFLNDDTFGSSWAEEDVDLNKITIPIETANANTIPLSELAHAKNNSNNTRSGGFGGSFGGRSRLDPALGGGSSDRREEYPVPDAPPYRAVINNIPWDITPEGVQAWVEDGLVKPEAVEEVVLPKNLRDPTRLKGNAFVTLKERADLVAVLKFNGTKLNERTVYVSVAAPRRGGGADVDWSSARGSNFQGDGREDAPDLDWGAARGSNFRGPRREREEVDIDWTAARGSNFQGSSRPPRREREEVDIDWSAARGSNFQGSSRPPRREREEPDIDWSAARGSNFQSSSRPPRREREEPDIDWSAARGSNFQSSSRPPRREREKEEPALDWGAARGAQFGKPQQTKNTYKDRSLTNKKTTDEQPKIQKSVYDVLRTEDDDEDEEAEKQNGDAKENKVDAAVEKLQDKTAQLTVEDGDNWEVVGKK
T1 sequence 3: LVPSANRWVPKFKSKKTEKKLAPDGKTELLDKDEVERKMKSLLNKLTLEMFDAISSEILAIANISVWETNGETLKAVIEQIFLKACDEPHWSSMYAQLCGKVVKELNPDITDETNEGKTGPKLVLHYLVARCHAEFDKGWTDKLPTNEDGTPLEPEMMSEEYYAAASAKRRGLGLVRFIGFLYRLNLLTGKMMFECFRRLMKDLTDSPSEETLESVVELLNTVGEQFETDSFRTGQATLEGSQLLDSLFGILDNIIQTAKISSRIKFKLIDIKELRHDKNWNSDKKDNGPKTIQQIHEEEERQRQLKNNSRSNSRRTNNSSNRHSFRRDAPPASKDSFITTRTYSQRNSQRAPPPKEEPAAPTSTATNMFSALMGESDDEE

eIF4A;eIF4G-MC (eIF4G) = target: T2, eIF4A;eIF4G-MC (eIF4G) (yeast;yeast, UniProt P10081;P39935 1-395;572-952, |); assay: EMSA
T2 sequence 1: T1 sequence 1
T2 sequence 2: T1 sequence 3

eIF4G-MC (eIF4G) = target: T3, eIF4G-MC (eIF4G) (yeast, UniProt P39935 572-952); assay: EMSA
T3 sequence: T1 sequence 3

eIF4B = target: T4, eIF4B (yeast, UniProt P34167 1-436); assay: EMSA
T4 sequence: T1 sequence 2

Row | Binder | Kd [1] [nM] | binding result (eIF4A;eIF4G-MC (eIF4G)) | binding result (eIF4G-MC (eIF4G)) | binding result (eIF4B)
1 | B1 | 3500 ± 500 | binds | no binding | 
2 | B2 | 1200 ± 300 |  |  | binds
